Reference: article PMC6290062, “Characterization of a Novel, Cold-Adapted, and Thermostable Laccase-Like Enzyme With High Tolerance for Organic Solvents and Salt and Potent Dye Decolorization Ability, Derived From a Marine Metagenomic Library” (Frontiers in Microbiology, 2018)

Key:
Experiment in all cases: purified protein
Conditions in all cases: 0.04 M Britton-Robinson buffer, pH 7.0, 60°C
COc1ccccc1O = type: biochemical, uncultured bacterium
[1] = test system: COc1cc(C=NN=Cc2cc(OC)c(O)c(OC)c2)cc(OC)c1O
Oc1ccccc1O = test system: Oc1ccccc1O

Lac1326 (uncultured bacterium)
Km (COc1ccccc1O): 4900 µM
kcat (COc1ccccc1O): 1.34 s⁻¹
kcat/Km (COc1ccccc1O): 270 M⁻¹ s⁻¹
Km [1]: 831 µM
kcat [1]: 24.1 s⁻¹
kcat/Km [1]: 29000 M⁻¹ s⁻¹
Km (Oc1ccccc1O): 507 µM
kcat/Km (Oc1ccccc1O): 28000 M⁻¹ s⁻¹
